B1: Ald-6HIS_F41K/E60T (ligand)
chain: PTSSSTKKTQLQLEHLLLDLQMILNGINNYKNPKLTRMLTKKFYMPKKATELKHLQCLETELKPLEEVLNLAQSKNFHLRPRDLISNINVIVLELKGSETTFMCEYADETATIVEFLNRWITFSQSIISTLTGGSHHHHHH
B2: Ald-6HIS_R37A/T40D/F41K (ligand)
chain: PTSSSTKKTQLQLEHLLLDLQMILNGINNYKNPKLTAMLDKKFYMPKKATELKHLQCLEEELKPLEEVLNLAQSKNFHLRPRDLISNINVIVLELKGSETTFMCEYADETATIVEFLNRWITFSQSIISTLTGGSHHHHHH
B3: Ald-6HIS_R37A/E60T (ligand)
chain: PTSSSTKKTQLQLEHLLLDLQMILNGINNYKNPKLTAMLTFKFYMPKKATELKHLQCLETELKPLEEVLNLAQSKNFHLRPRDLISNINVIVLELKGSETTFMCEYADETATIVEFLNRWITFSQSIISTLTGGSHHHHHH
B4: Ald-6HIS_R37A/T40D/E60T (ligand)
chain: PTSSSTKKTQLQLEHLLLDLQMILNGINNYKNPKLTAMLDFKFYMPKKATELKHLQCLETELKPLEEVLNLAQSKNFHLRPRDLISNINVIVLELKGSETTFMCEYADETATIVEFLNRWITFSQSIISTLTGGSHHHHHH
B5: Ald-6HIS_R37A/T40D (ligand)
chain: PTSSSTKKTQLQLEHLLLDLQMILNGINNYKNPKLTAMLDFKFYMPKKATELKHLQCLEEELKPLEEVLNLAQSKNFHLRPRDLISNINVIVLELKGSETTFMCEYADETATIVEFLNRWITFSQSIISTLTGGSHHHHHH
B6: Ald-6HIS_R37A/F41K/E60T (ligand)
chain: PTSSSTKKTQLQLEHLLLDLQMILNGINNYKNPKLTAMLTKKFYMPKKATELKHLQCLETELKPLEEVLNLAQSKNFHLRPRDLISNINVIVLELKGSETTFMCEYADETATIVEFLNRWITFSQSIISTLTGGSHHHHHH
B7: Ald-6HIS_T40D/E60T (ligand)
chain: PTSSSTKKTQLQLEHLLLDLQMILNGINNYKNPKLTRMLDFKFYMPKKATELKHLQCLETELKPLEEVLNLAQSKNFHLRPRDLISNINVIVLELKGSETTFMCEYADETATIVEFLNRWITFSQSIISTLTGGSHHHHHH
B8: Ald_F41/Y44A/l71G* (ligand)
chain: PTSSSTKKTQLQLEHLLLDLQMILNGINNYKNPKLTRMLTAKFAMPKKATELKHLQCLEEELKPLEEVLNGAQSKNFHLRPRDLISNINVIVLELKGSETTFMCEYADETATIVEFLNRWITFSQSIISTLTGGSHHHHHH
B9: Ald-6HIS_R37A/F41K (ligand)
chain: PTSSSTKKTQLQLEHLLLDLQMILNGINNYKNPKLTAMLTKKFYMPKKATELKHLQCLEEELKPLEEVLNLAQSKNFHLRPRDLISNINVIVLELKGSETTFMCEYADETATIVEFLNRWITFSQSIISTLTGGSHHHHHH

Experiments:
[1] = molecular target: T1, human IL-2Rαβγc (on Kit225-STAT5 reporter cells, NK-92 cells, primary Treg cells) (human, UniProt P01589 22-272; P14784 27-551; P31785 23-369); assay: cell-based or functional assay
T1 sequence (looked up) 1: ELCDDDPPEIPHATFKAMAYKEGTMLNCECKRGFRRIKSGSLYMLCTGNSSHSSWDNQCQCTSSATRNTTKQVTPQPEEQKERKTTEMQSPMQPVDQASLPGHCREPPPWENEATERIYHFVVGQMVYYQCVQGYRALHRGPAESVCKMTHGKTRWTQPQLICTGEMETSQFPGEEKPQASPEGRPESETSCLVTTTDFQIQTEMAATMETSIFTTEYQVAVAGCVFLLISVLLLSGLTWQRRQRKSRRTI
T1 sequence (looked up) 2: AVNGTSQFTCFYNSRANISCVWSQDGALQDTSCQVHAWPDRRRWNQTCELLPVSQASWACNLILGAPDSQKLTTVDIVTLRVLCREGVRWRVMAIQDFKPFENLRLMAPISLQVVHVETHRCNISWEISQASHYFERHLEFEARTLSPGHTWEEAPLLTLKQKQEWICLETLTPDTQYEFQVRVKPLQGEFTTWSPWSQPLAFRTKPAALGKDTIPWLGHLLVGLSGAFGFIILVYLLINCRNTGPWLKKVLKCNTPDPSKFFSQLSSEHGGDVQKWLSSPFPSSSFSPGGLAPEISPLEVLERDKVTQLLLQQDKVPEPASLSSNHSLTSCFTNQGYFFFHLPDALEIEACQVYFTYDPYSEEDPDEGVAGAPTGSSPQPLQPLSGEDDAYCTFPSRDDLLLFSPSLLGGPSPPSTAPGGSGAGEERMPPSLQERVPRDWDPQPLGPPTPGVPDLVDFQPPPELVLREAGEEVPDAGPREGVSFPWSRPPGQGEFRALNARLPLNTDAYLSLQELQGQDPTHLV
T1 sequence (looked up) 3: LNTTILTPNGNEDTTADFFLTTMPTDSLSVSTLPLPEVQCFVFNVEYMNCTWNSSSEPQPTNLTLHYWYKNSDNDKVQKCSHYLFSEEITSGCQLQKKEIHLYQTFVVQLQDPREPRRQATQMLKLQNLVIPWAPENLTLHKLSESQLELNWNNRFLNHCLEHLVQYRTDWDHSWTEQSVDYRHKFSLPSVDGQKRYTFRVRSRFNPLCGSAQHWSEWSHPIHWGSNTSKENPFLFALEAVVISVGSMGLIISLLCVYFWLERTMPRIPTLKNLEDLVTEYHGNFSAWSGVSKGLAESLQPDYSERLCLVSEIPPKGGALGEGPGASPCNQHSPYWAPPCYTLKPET

Human IL-2Rβ (Table 7B) = molecular target: T2, Human IL-2Rβ (Table 7B) (human, UniProt P14784 27-239, limits assumed); assay: SPR (Biacore T200)
T2 sequence (looked up): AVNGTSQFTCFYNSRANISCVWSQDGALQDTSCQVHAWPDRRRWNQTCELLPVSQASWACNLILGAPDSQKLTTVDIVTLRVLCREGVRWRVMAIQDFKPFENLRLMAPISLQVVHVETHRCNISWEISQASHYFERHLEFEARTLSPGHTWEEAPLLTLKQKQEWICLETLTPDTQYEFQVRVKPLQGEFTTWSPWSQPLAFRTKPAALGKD

[2] = molecular target: T3, mouse IL-2Rαβγc (on CTLL2-STAT5 reporter cells) (mouse, UniProt P01590 22-268; P16297 27-539; P34902 23-369); assay: cell-based or functional assay
T3 sequence (looked up) 1: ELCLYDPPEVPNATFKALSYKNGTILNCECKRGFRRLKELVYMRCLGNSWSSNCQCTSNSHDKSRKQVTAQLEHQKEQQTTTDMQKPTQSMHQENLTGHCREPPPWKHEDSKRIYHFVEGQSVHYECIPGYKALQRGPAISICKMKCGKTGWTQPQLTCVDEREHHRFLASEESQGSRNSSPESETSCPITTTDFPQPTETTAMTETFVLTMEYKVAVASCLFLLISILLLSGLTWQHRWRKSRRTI
T3 sequence (looked up) 2: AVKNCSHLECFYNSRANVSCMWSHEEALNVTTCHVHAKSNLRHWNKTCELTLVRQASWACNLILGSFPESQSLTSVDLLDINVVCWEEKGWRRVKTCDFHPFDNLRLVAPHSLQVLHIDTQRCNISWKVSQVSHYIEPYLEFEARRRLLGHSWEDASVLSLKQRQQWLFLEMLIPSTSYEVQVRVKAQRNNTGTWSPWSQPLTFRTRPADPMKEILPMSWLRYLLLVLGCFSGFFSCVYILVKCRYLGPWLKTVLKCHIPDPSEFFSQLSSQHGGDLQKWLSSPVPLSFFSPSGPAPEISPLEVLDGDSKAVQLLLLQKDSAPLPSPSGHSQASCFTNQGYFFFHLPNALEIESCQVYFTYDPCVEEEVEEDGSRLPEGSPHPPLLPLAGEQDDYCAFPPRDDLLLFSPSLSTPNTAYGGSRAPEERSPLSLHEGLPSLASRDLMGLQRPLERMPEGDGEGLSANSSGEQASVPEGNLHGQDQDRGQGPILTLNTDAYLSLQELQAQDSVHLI
T3 sequence (looked up) 3: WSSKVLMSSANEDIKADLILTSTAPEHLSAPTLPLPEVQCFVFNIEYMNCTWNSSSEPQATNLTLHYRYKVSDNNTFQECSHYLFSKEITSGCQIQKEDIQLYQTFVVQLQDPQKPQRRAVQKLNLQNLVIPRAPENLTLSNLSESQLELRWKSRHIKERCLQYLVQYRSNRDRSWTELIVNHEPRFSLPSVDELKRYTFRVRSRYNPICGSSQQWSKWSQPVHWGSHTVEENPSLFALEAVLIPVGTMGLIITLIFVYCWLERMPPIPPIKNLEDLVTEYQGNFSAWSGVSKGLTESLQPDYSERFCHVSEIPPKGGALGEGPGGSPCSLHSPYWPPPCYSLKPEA

[3] = molecular target: T4, human IL-2Rβγc (on DERL-7 cells, U2OS IL2RB/IL2RG cells, CD25 knockout Kit225-STAT5 cells, primary CD8+ CTLs) (human, UniProt P14784 27-551; P31785 23-369); assay: cell-based or functional assay
T4 sequence (looked up) 1: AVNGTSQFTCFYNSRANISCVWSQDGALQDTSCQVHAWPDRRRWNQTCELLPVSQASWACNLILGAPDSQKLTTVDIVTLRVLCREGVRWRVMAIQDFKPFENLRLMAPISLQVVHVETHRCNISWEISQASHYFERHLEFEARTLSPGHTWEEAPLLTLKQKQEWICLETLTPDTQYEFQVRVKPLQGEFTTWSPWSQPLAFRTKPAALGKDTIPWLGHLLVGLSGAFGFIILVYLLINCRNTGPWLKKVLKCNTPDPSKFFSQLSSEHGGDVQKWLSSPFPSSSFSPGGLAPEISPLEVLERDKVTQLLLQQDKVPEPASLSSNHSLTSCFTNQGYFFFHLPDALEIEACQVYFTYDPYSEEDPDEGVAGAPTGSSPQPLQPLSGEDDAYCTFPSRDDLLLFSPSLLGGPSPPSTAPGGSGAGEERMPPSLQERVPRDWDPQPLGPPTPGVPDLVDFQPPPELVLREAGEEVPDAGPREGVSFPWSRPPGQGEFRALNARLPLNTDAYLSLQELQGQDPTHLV
T4 sequence (looked up) 2: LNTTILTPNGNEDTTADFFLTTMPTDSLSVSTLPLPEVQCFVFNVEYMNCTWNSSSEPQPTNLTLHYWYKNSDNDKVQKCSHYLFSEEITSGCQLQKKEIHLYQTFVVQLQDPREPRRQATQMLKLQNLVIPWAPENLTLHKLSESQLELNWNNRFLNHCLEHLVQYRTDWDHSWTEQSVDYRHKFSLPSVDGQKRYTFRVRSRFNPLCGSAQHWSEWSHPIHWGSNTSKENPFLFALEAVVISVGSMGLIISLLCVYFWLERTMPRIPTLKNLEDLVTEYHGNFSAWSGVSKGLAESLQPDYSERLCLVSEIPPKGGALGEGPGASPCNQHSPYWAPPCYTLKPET

[4] = molecular target: T4, human IL-2Rβγc (on DERL-7 cells, U2OS …); assay: cell-based or functional assay; remark: listed apart in the source

Binder	NK-92 EC50 Fold Change [1] [fold]	NK-92 cell assay EC50 [1] [nM]	Kd (Human IL-2Rβ (Table 7B)) [nM]	koff (Human IL-2Rβ (Table 7B)) [s⁻¹]	kon (Human IL-2Rβ (Table 7B)) [M⁻¹ s⁻¹]	STAT5-CTLL2 EC50 [2] [nM]	STAT5-CTLL2 EC50 Fold Change [2] [fold]	DERL7 EC50 Fold Change [3] [fold]	DERL7 cell assay EC50 [3] [nM]	U2OS B/BG EC50 Fold Change [4] [fold]	U2OS B/BG bridging cell assay EC50 [4] [nM]
B1	11.4	0.079	1100	0.47	440000	103	11400	2.01	0.036	3.15	0.502
B2	3.73	0.026	590	0.24	410000	12.7	1400	0.71	0.013	1.16	0.185
B3	4.46	0.031	1100	0.082	75000	0.129	14.3	2.14	0.038	3.28	0.522
B4	11	0.076	1900	0.42	220000	6.22	689	2.41	0.043	2.53	0.403
B5	2.06	0.014	730	0.25	340000	0.101	11.2	1.31	0.023	2.83	0.451
B6	9.03	0.063	860	0.013		95.2	10500	1.46	0.026	2.04	0.325
B7	4.61	0.032	990	0.36	360000	2.2	244	1.55	0.028	3.09	0.492
B8			770	0.3	390000						
B9	7.31	0.051	1000	0.3	300000	11	1220	1.18	0.021	2.32	0.37

— patent publication US20210340207A1 (Merck Sharp & Dohme, published 2021)
